The values below come from the supplement of paper PMC10567573.

The labels stand for the following.
B1: PLD5 (parent)
chain: WIVDKQHVYIGSAGLDWQSLGQMK
B2: BTBD1 (parent)
chain: TSAEIELPDVEPAAFLALLRFLYS
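Further: lentivirally expressed fusions sorted by FACS into six bins by GFP to DsRed ratio, PSI derived from sequencing read proportions per bin multiplied by bin number.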

The variants in one data set derive from B1. Nature of the data set: protein stability index of a GFP-peptide fusion (GPS, HEK-293T) (PSI 1-6); higher = more stable. Particulars: c terminus: a fixed tail appended.
Consider WIVDKQHVGIGSAGLDWQSLGQMK [Y9G], for which the protein stability index was 1.96.
Same read-out and setting: for WIVDKQHVEIGSAGLDWQSLGQMK [Y9E] the value was 2.13; for WIVDKQHVAIGSAGLDWQSLGQMK [Y9A], 2.33; for WIVDKQHVQIGSAGLDWQSLGQMK [Y9Q], 2.14.
The same measure, in the same setting: the figure for WIVDKQHVCIGSAGLDWQSLGQMK [Y9C] is 1.54.
On to WIVDKQHVLIGSAGLDWQSLGQMK [Y9L], for which the protein stability index worked out at 1.64.
The same measure, in the same setting: the figure for WIVDKWHVYIGSAGLDWQSLGQMK [Q6W] is 4.19; for WIVDKCHVYIGSAGLDWQSLGQMK [Q6C] it is 1; for WIVDKQHVYIGSAGLDWCSLGQMK [Q18C] it is 3.36.
In the case of WIVDKQHVYIGSAGLDWHSLGQMK [Q18H], the protein stability index amounted to 1.96.
Consider WIVDKQHVYIGSAGLDWTSLGQMK [Q18T], for which the protein stability index came to 2.07.
Still for that read-out and setting: the figure for WIVDKQHVYIGSAGLDAQSLGQMK [W17A] is 1.97; for WIVDKQHVYIGSAGLDMQSLGQMK [W17M] it is 1.38; for WIVDKQHVYIGSAGLDPQSLGQMK [W17P] it is 1.64.
Still for that read-out and setting: for WIVDKQHVYIGSAGLDQQSLGQMK [W17Q] the value was 2.09; for WIVDKQHVYIGSAGLDRQSLGQMK [W17R], 1.9.
On the same count and under the same terms, the figure for WIVDKQHVYIGSAGLDGQSLGQMK [W17G] is 2.17; for WIVDKQHVYIGSAGEDWQSLGQMK [L15E] it is 2.13; for WIVDKQHVYIGSAGPDWQSLGQMK [L15P] it is 1.99.
As for WIVDKQHVYIGSAGVDWQSLGQMK [L15V], the protein stability index worked out at 1.54.
On the same count and under the same terms, for WIVDKQHVYIGSAGDDWQSLGQMK [L15D] the value was 1.92; for WIVDKQHVYIGSAGMDWQSLGQMK [L15M], 1.34; for WIVDKQHVYIGSAGLDWQSVGQMK [L20V], 2.
For WIVDKQHVYIGSAGLDWQSHGQMK [L20H], the protein stability index was 1.76.
Still for that read-out and setting: for WIVDKQHVYIGSAGLDWQSTGQMK [L20T] the value was 2.01; for WIVDKQHVYIGSAGLDWQSPGQMK [L20P], 2.1.
As for WIVDKQHVYIGSAGLDWQSMGQMK [L20M], the protein stability index was 2.19.
Same read-out and setting: the figure for WIVDKQHVYCGSAGLDWQSLGQMK [I10C] is 1.64; for WIVDKQHVYVGSAGLDWQSLGQMK [I10V] it is 1.92; for WIVDKQHVYRGSAGLDWQSLGQMK [I10R] it is 1.65.
WIVDKQHVYAGSAGLDWQSLGQMK [I10A]: the protein stability index turned out to be 1.85.
Same read-out and setting: the figure for WIVDKQHVYGGSAGLDWQSLGQMK [I10G] is 1.64; for WIVDKQHVYPGSAGLDWQSLGQMK [I10P] it is 1.79.
Same read-out and setting: for WIVDKQHVYIGSAGLDWQSLGLMK [Q22L] the value was 3.9; for WIVDKQHVYIGSAGLDWQSLGIMK [Q22I], 1.53.
Still for that read-out and setting: the figure for WIVDKQHVYIGSAGLDWQSLGAMK [Q22A] is 2.11; for WIVDKQHVYIGSAGLDWQSLGGMK [Q22G] it is 1.8.
Turning to WIVDKQHVYIGSAGLDWQSLGYMK [Q22Y], the protein stability index stood at 2.35.
The same measure, in the same setting: for WIVDKQHVYIGSAGLKWQSLGQMK [D16K] the value was 1.68.
The same measure, in the same setting: for WIVDKQHVYIGSAGLCWQSLGQMK [D16C] the value was 2.39; for WIVDKQHVYIGSAGLDWQSLGQYK [M23Y], 1.84; for WIVDKQHVYIGSAGLDWQSLGQTK [M23T], 2.06.
Same read-out and setting: for WIVDKQHVYIGSAGLDWQSLGQQK [M23Q] the value was 2.09; for WIVDKQHVYIGSAGLDWQSLKQMK [G21K], 1.54.
With WIVDKQHVYIGSAGLDWQSLTQMK [G21T], the protein stability index came to 1.86.
The same measure, in the same setting: for WIVDKQHVYIGSAGLDWQSLNQMK [G21N] the value was 2.41; for WIPDKQHVYIGSAGLDWQSLGQMK [V3P], 1.97; for WIHDKQHVYIGSAGLDWQSLGQMK [V3H], 1.74.
The same measure, in the same setting: the figure for WIWDKQHVYIGSAGLDWQSLGQMK [V3W] is 2.13; for WIVDKQHVYIGSAELDWQSLGQMK [G14E] it is 1.54; for WIVDKQHVYIGSAVLDWQSLGQMK [G14V] it is 2.6.
Same read-out and setting: the figure for WIVDKQHVYIGSALLDWQSLGQMK [G14L] is 1.64; for WIVDKQHVYIGRAGLDWQSLGQMK [S12R] it is 1.6.
As for WIVDKQYVYIGSAGLDWQSLGQMK [H7Y], the protein stability index amounted to 2.6.
With WIVDKQDVYIGSAGLDWQSLGQMK [H7D], the protein stability index was determined as 1.98.
On to WIVDKQMVYIGSAGLDWQSLGQMK [H7M], for which the protein stability index turned out to be 2.6.
The same measure, in the same setting: for WIVTKQHVYIGSAGLDWQSLGQMK [D4T] the value was 4.09; for WPVDKQHVYIGSAGLDWQSLGQMK [I2P], 2.65; for WSVDKQHVYIGSAGLDWQSLGQMK [I2S], 2.08.
Still for that read-out and setting: for WDVDKQHVYIGSAGLDWQSLGQMK [I2D] the value was 2.16; for WCVDKQHVYIGSAGLDWQSLGQMK [I2C], 1.83; for WIVDGQHVYIGSAGLDWQSLGQMK [K5G], 1.8.
Same read-out and setting: the figure for WIVDIQHVYIGSAGLDWQSLGQMK [K5I] is 3.22; for WIVDEQHVYIGSAGLDWQSLGQMK [K5E] it is 2.42.
WIVDKQHTYIGSAGLDWQSLGQMK [V8T]: the protein stability index worked out at 1.81.
The same measure, in the same setting: the figure for WIVDKQHDYIGSAGLDWQSLGQMK [V8D] is 1.5; for QIVDKQHVYIGSAGLDWQSLGQMK [W1Q] it is 2.5.
On the same count and under the same terms, the figure for KIVDKQHVYIGSAGLDWQSLGQMK [W1K] is 2.32; for WIVDKQHVYIGSAGLDWQTLGQMK [S19T] it is 1.96.
On the same count and under the same terms, for WIVDKQHVYIGSAGLDWQVLGQMK [S19V] the value was 1.69; for WIVDKQHVYIGSAGLDWQFLGQMK [S19F], 2.34.
With WIVDKQHVYIGSAGLDWQWLGQMK [S19W], the protein stability index was found to be 2.5.
The same measure, in the same setting: the figure for WIVDKQHVYIGSAGLDWQALGQMK [S19A] is 2.23; for WIVDKQHVYIGSAGLDWQSLGQMH [K24H] it is 2.79; for WIVDKQHVYIGSAGLDWQSLGQMR [K24R] it is 1.51.
For the variant WIVDKQHVYIGSAGLDWQSLGQME [K24E], the protein stability index is 2.51.
On the same count and under the same terms, the figure for WIVDKQHVYIGSAGLDWQSLGQMP [K24P] is 2.17.
Still for that read-out and setting: the figure for WIVDKQHVYIGSWGLDWQSLGQMK [A13W] is 1.56; for WIVDKQHVYIGSMGLDWQSLGQMK [A13M] it is 1.9; for WIVDKQHVYIGSRGLDWQSLGQMK [A13R] it is 3.3.
On the same count and under the same terms, the figure for WIVDKQHVYIGSVGLDWQSLGQMK [A13V] is 3.68; for WIVDKQHVYIGSHGLDWQSLGQMK [A13H] it is 1.45.
For WIVDKQHVYINSAGLDWQSLGQMK [G11N], the protein stability index was found to be 2.32.
Same read-out and setting: for WIVDKQHVYIRSAGLDWQSLGQMK [G11R] the value was 2.02; for WIVDKQHVYISSAGLDWQSLGQMK [G11S], 2.22; for WIVDKQHVYICSAGLDWQSLGQMK [G11C], 2.07.
The same measure, in the same setting: for WIVDKQHVYIKSAGLDWQSLGQMK [G11K] the value was 1.26.

The variants in the next data set derive from B2. Described as above. The conditions noted are these: c terminus: a fixed tail appended.
For TSAEIELPHVEPAAFLALLRFLYS [D9H], the protein stability index was 2.
Same read-out and setting: for TSAEIELPPVEPAAFLALLRFLYS [D9P] the value was 2.4.
The same measure, in the same setting: the figure for TSAEIELPCVEPAAFLALLRFLYS [D9C] is 1.62.
On the same count and under the same terms, for TSAEIELPIVEPAAFLALLRFLYS [D9I] the value was 1.49; for TSAEIELPDVEPAANLALLRFLYS [F15N], 1.98; for TSAEIELPDVEPAAMLALLRFLYS [F15M], 1.43.
TSAEIELPDVEPAAQLALLRFLYS [F15Q]: the protein stability index turned out to be 1.83.
